By stoichiometry N is commonly meant the number of molecules, sites or subunits per partner or assembly.

What all share (test): AUC
In assay [1] the target is FGF9^Eks, purified recombinant FGF9 with the Eks mutation N143T (UniProt P54130).
Assay [2] addresses FGF9^WT, purified recombinant wild type FGF9 (UniProt P54130).
Assay [3] shares this target. The source holds these as a separate data set.

Read-outs that look alike come from different tables or passages of the source.

In the case of “FGF9^Eks, purified recombinant FGF9 with the Eks mutation N143T (from UniProt P54130 4-208) (natural protein)”, in assay [1], the Ka came to 119000 M⁻¹ and the stoichiometry N turned out to be 2.

As to “FGF9^WT, purified recombinant wild type FGF9 (from UniProt P54130 4-208) (natural protein)”, the Ka in assay [2] was found to be 1.04e+07 M⁻¹. For the same substance, the stoichiometry N in assay [2] and in assay [3] was 2 each time.

The record behind these values is PMC2676118.
